Target: enterovirus 71 (EV71) virions (enterovirus 71)
Test: cell-based or functional assay

Binder	Inhibitory concentration 50 (IC50), Vero ATCC [µg/mL]	Inhibitory concentration 50 (IC50), Vero NIBSC [µg/mL]	PRNT50 of original hybridoma [µl/ml]	end point PRNT50, Vero ATCC [ng/mL]	end point PRNT50, Vero NIBSC [ng/mL]
monoclonal antibody E18 produced by the hybridoma cell line EV18/4 (antibody, V domains shown) VH: QIQLVQSGPELKKPGETVKISCKASGYTFTRYGMSWVKQAPGKGLKWMGWINTYSGVPTYADDFKGRFAFSLETSASTAYLQINNLKNEDTATYFCARRGYSNYYPMDFWGQGTSVTVSS VL: DIKMTQSPSSMYASLGERVTITCKASQDIKSYLSWYQQKPWKSPKTLIYYAKNLADGVPSRFSGSGFGQDYSLTISSLESDDTATYYCLQHGESPYTFGSGTKLEIKR	0.272	0.181	0.625	625	312
monoclonal antibody E20 produced by the hybridoma cell line EV20/5 (antibody, V domains shown) VH: EVQLVESGGGLVKPGGSLKLSCAASGFTFNIYAMSWVRQTPEKRLEWVATISDGGSYTYYPDNVKGRFTISRDNAKNNLYLQMSHLKSEDTAMYYCVRDRGNYYSRAFPYAYWGQGTLVTVSA VL: SIVMTQTPKFLPVSAGDRVTMTCKASQSVGNNVAWYQQKSGQSPKLLIYYASNRYTGVPDRFTGSGSGTDFTFTISSVQVEDLAVYFCQQHYSSPPTFGAGTKLELK	–	9.95	5	–	10000
